Article doi:10.1101/2024.05.23.595592

Target: TREM2 R77D, biotinylated (human) (UniProt Q9NZC2)
Assay: BLI

Chain of TREM2 R77D, biotinylated (human) (Q9NZC2 19-230 R77D): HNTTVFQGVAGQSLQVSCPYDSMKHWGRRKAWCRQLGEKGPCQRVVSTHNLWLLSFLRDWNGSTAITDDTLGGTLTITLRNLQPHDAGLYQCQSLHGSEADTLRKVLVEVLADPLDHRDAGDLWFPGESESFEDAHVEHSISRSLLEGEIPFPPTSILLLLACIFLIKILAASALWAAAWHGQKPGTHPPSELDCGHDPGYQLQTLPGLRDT

Kd: 114 nM
B1: Human IL-34 (19-241) (ligand)
chain: LGNEPLEMWPLTQNEECTVTGFLRDKLQYRSRLQYMKHYFPINYKISVPYEGVFRIANVTRLQRAQVSERELRYLWVLVSLSATESVQDVLLEGHPSWKYLQEVETLLLNVQQGLTDVEVSPKVESVLSLLNAPGPNLKLVRPKALLDNCFRVMELLYCSCCKQSSVLNWQDCEVPSPQSCSPEPSLQYAATQLYPPPPWSPSSPPHSTGSVRPVRAQGEGLL
